{"source": "the Human Domainome abundance scans (Beltran et al. 2025)", "parents": {"B1": {"name": "Syntaxin-binding protein 4, residues 493 to 538; numbered along this chain, Q6ZWJ1 (parent)", "chain": "LDMDCLPYGWEEAYTADGIKYFINHVTQTTSWIHPVMSVLNLSRSE"}}, "note": "± gives the uncertainty stated by the source.", "data": [{"variants_of": "B1", "test": "abundance fitness (aPCA) (normalised: wild type 0, dead -1); higher = more abundant; growth selection in yeast, the domain comes from the species named", "details": "Homo sapiens", "values": [{"variant": "S31N", "abundance fitness": "-0.953 ± 0.19"}, {"variant": "S31T", "abundance fitness": "0.199 ± 0.09"}, {"variant": "S31F", "abundance fitness": "-0.734 ± 0.12"}, {"variant": "S31H", "abundance fitness": "-0.94 ± 0.18"}, {"variant": "S31K", "abundance fitness": "-0.471 ± 0.12"}, {"variant": "S31P", "abundance fitness": "-0.788 ± 0.13"}, {"variant": "S31Y", "abundance fitness": "-0.879 ± 0.18"}, {"variant": "S31C", "abundance fitness": "-0.698 ± 0.15"}, {"variant": "S31D", "abundance fitness": "-0.89 ± 0.19"}, {"variant": "S31R", "abundance fitness": "-0.818 ± 0.1"}, {"variant": "S31V", "abundance fitness": "-0.373 ± 0.097"}, {"variant": "D17N", "abundance fitness": "-0.548 ± 0.12"}, {"variant": "D17C", "abundance fitness": "-0.873 ± 0.12"}, {"variant": "D17Q", "abundance fitness": "-0.571 ± 0.14"}, {"variant": "D17F", "abundance fitness": "-0.942 ± 0.14"}, {"variant": "D17S", "abundance fitness": "-0.625 ± 0.09"}, {"variant": "D17K", "abundance fitness": "-0.547 ± 0.1"}, {"variant": "D17M", "abundance fitness": "-0.88 ± 0.12"}, {"variant": "D17W", "abundance fitness": "-0.835 ± 0.1"}, {"variant": "D17R", "abundance fitness": "-0.697 ± 0.085"}, {"variant": "D17G", "abundance fitness": "-0.76 ± 0.084"}, {"variant": "D17I", "abundance fitness": "-0.63 ± 0.11"}, {"variant": "D17Y", "abundance fitness": "-0.881 ± 0.14"}, {"variant": "D17H", "abundance fitness": "-0.691 ± 0.18"}, {"variant": "D17P", "abundance fitness": "-0.867 ± 0.12"}, {"variant": "D17V", "abundance fitness": "-0.648 ± 0.097"}, {"variant": "D17A", "abundance fitness": "-0.69 ± 0.11"}, {"variant": "D17T", "abundance fitness": "-0.793 ± 0.12"}, {"variant": "D17L", "abundance fitness": "-0.823 ± 0.093"}, {"variant": "I23V", "abundance fitness": "0.023 ± 0.098"}, {"variant": "I23R", "abundance fitness": "-0.241 ± 0.081"}, {"variant": "I23T", "abundance fitness": "-0.786 ± 0.16"}, {"variant": "I23C", "abundance fitness": "-0.892 ± 0.15"}, {"variant": "I23Q", "abundance fitness": "-0.829 ± 0.18"}, {"variant": "I23G", "abundance fitness": "-0.889 ± 0.092"}, {"variant": "I23M", "abundance fitness": "-0.733 ± 0.18"}, {"variant": "I23L", "abundance fitness": "-0.57 ± 0.099"}, {"variant": "I23D", "abundance fitness": "-0.731 ± 0.28"}, {"variant": "I23P", "abundance fitness": "-0.4 ± 0.11"}, {"variant": "I23W", "abundance fitness": "-0.811 ± 0.12"}, {"variant": "I23N", "abundance fitness": "-0.708 ± 0.3"}, {"variant": "I23H", "abundance fitness": "-0.833 ± 0.42"}, {"variant": "I23S", "abundance fitness": "-0.49 ± 0.1"}, {"variant": "I23A", "abundance fitness": "-0.781 ± 0.12"}, {"variant": "I23Y", "abundance fitness": "-0.209 ± 0.16"}, {"variant": "I23F", "abundance fitness": "-0.715 ± 0.19"}, {"variant": "I23E", "abundance fitness": "-1.08 ± 0.18"}, {"variant": "I23K", "abundance fitness": "-0.282 ± 0.14"}, {"variant": "G18P", "abundance fitness": "-0.834 ± 0.12"}, {"variant": "G18C", "abundance fitness": "-0.902 ± 0.12"}, {"variant": "G18V", "abundance fitness": "-0.867 ± 0.095"}, {"variant": "G18M", "abundance fitness": "-0.846 ± 0.14"}, {"variant": "G18D", "abundance fitness": "-0.576 ± 0.11"}, {"variant": "G18K", "abundance fitness": "-0.453 ± 0.12"}, {"variant": "G18N", "abundance fitness": "-0.845 ± 0.15"}, {"variant": "G18H", "abundance fitness": "-0.862 ± 0.22"}, {"variant": "G18Y", "abundance fitness": "-0.787 ± 0.15"}, {"variant": "G18T", "abundance fitness": "-0.949 ± 0.13"}, {"variant": "G18E", "abundance fitness": "-0.681 ± 0.13"}, {"variant": "G18W", "abundance fitness": "-0.493 ± 0.091"}, {"variant": "G18S", "abundance fitness": "-0.725 ± 0.091"}, {"variant": "G18I", "abundance fitness": "-0.488 ± 0.22"}, {"variant": "G18Q", "abundance fitness": "-0.661 ± 0.12"}, {"variant": "F22I", "abundance fitness": "-0.728 ± 0.16"}, {"variant": "F22P", "abundance fitness": "-0.895 ± 0.15"}, {"variant": "F22R", "abundance fitness": "-0.872 ± 0.092"}, {"variant": "F22K", "abundance fitness": "-0.637 ± 0.14"}, {"variant": "F22N", "abundance fitness": "-0.787 ± 0.19"}, {"variant": "F22E", "abundance fitness": "-0.789 ± 0.14"}, {"variant": "F22C", "abundance fitness": "-0.659 ± 0.12"}, {"variant": "F22A", "abundance fitness": "-0.956 ± 0.11"}, {"variant": "F22M", "abundance fitness": "-0.44 ± 0.14"}, {"variant": "F22Q", "abundance fitness": "-0.823 ± 0.16"}, {"variant": "F22L", "abundance fitness": "-0.854 ± 0.094"}, {"variant": "F22G", "abundance fitness": "-0.782 ± 0.09"}, {"variant": "F22T", "abundance fitness": "-0.458 ± 0.1"}, {"variant": "F22V", "abundance fitness": "-0.904 ± 0.099"}, {"variant": "F22S", "abundance fitness": "-0.832 ± 0.11"}, {"variant": "F22D", "abundance fitness": "-0.794 ± 0.22"}, {"variant": "T30E", "abundance fitness": "-0.857 ± 0.13"}, {"variant": "T30Q", "abundance fitness": "-0.624 ± 0.12"}, {"variant": "T30Y", "abundance fitness": "-1 ± 0.32"}, {"variant": "T30G", "abundance fitness": "-0.632 ± 0.085"}]}]}
